Columns and labels:
[1] = substrate: CSCC[C@H](N)C(=O)N[C@@H](C)C(=O)N[C@@H](CO)C(=O)O; experiment: purified protein, by the assay type; conditions: other: hydrolysis of methionine from MAS peptide substrate; pH 7.5
Procedure: (§1) Hydrogen peroxide, produced by the L-amino acid oxidase reaction, was measured by monitoring the formation of resorufin from Amplex Red in a reaction catalyzed by of horseradish peroxidase. […] The reaction was performed in a 96-well plate format at ambient temperature using the following assay buffer: 20 mM HEPES-Na pH 7.5, 100 mM NaCl, 0.1 mM CoCl2 containing 100 μM Amplex Red, 0.15 U/ml L-amino acid oxidase, 0.5 U/ml horseradish peroxidase.
(§2) The IC50 values were determined under conditions in which enzyme concentration and reaction time were linear.

[2] = substrate: CSCC[C@H](N)C(=O)N[C@@H](C)C(=O)N[C@@H](CO)C(=O)O; experiment: Methionine aminopeptidase activity assay (methionine release from tripeptide, coupled L-amino acid oxidase/Amplex Red); type: biochemical, human; conditions: other: hydrolysis of methionine from MAS peptide substrate; pH 7.5
Procedure: as §1, §2

B1: recombinant human MetAP-2 (Homo sapiens) (protein)
chain: MAGVEEVAASGSHLNGDLDPDDREEGAASTAEEAAKKKRRKKKKSKGPSAAGEQEPDKESGASVDEVARQLERSALEDKERDEDDEDGDGDGDGATGKKKKKKKKKRGPKVQTDPPSVPICDLYPNGVFPKGQECEYPPTQDGRTAAWRTTSEEKKALDQASEEIWNDFREAAEAHRQVRKYVMSWIKPGMTMIEICEKLEDCSRKLIKENGLNAGLAFPTGCSLNNCAAHYTPNAGDTTVLQYDDICKIDFGTHISGRIIDCAFTVTFNPKYDTLLKAVKDATNTGIKCAGIDVRLCDVGEAIQEVMESYEVEIDGKTYQVKPIRNLNGHSIGQYRIHAGKTVPIVKGGEATRMEEGEVYAIETFGSTGKGVVHDDMECSHYMKNFDVGHVPIRLPRTKHLLNVINENFGTLAFCRRWLDRLGESKYLMALKNLCDLGIVDPYPPLCDIKGSYTAQFEHTILLRPTCKEVVSRGDDY
[1]
  Km: 0.3 mM
  kcat: 2.3 s⁻¹

B2: recombinant human MetAP-3 (Homo sapiens) (protein)
chain: SSPLNHIYLHKQSSSQQRRNFFFRRQRDISHSIVLPAAVSSAHPVPKHIKKPDYVTTGIVPDWGDSIEVKNEDQIQGLHQACQLARHVLLLAGKSLKVDMTTEEIDALVHREIISHNAYPSPLGYGGFPKSVCTSVNNVLCHGIPDSRPLQDGDIINIDVTVYYNGYHGDTSETFLVGNVDECGKKLVEVARRCRDEAIAACRAGAPFSVIGNTISHITHQNGFQVCPHFVGHGIGSYFHGHPEIWHHANDSDLPMEEGMAFTIEPIITEGSPEFKVLEDAWTVVSLDNQRSAQFEHTVLITSRGAQILTKLPHEA
notes: The coding region of hMetAP-3 was also cloned into the EcoRI/HindIII sites of the pET43a vector and expressed as a fusion protein; NusA (N, cleaved yes); 6xHis (N, cleaved yes); made in house; host or cells: E. coli Tuner (DE3)plysS, pET43a
[2]
  Km: 0.6 mM
  kcat: 0.06 s⁻¹

Reference: US6953577B2, “Human methionine aminopeptidase type 3” (Pharmacia Corporation, priority 1999, dated 2005)
